± gives the standard deviation of the averaged measurements.
Legend:
[1] = test system: Saccharomyces cerevisiae; experiment: protein stability index of tFT-peptide fusion (C-terminal peptide) (PSI (0-1 scale)); higher = more stable (slower turnover); conditions: genetic background: wild type; temperature: 30 C
[2] = test system: Saccharomyces cerevisiae; experiment: as above
Procedure: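 MPS profiling in S. cerevisiae of the tFT-X12 degron library: putative degron peptides plus stable controls, 12 aa, fused to the C-terminus of a sfGFP-mCherry timer. Cells are FACS-sorted into 8 mCherry/sfGFP bins and deep-sequenced. PSI runs from 0 (unstable) to 1 (stable). Backgrounds are wild type, das1Δ and doa10Δ at 30 °C, and wild type, das1Δ, cdc34-1 and cdc53-1 at 37 °C; 2-3 technical replicates each.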

[3] = genetic background: cdc34-1, temperature: 37 C
[4] = genetic background: cdc53-1, temperature: 37 C
[5] = genetic background: das1 deletion, temperature: 30 C
[6] = genetic background: das1 deletion, temperature: 37 C
[7] = genetic background: doa10 deletion, temperature: 30 C
[8] = genetic background: wild type, temperature: 30 C
[9] = genetic background: wild type, temperature: 37 C
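Further: PSI is a weighted mean of sequencing reads over stability bins, variants kept only with over 10 reads, mCherry proximal and sfGFP distal, peptide attached via GGGS linker.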

Work on FILSLSFVFSRP yielded a protein stability index [1] of 0.405 ± 0.073, a protein stability index [2, 3] of 0.415 ± 0.037 and a protein stability index [2, 4] of 0.501 ± 0.011. The protein stability index [2, 5] was 0.425 ± 0.027, the protein stability index [2, 6] was 0.462 ± 0.012 and the protein stability index [2, 7] was 0.452 ± 0.039. It also gave a protein stability index [2, 8] of 0.441 ± 0.046 and a protein stability index [2, 9] of 0.441 ± 0.026.

Sequence VFDFVFHLRFVV has a protein stability index [1] of 0.1155 ± 0.00063, a protein stability index [2, 3] of 0.336 ± 0.032 and a protein stability index [2, 4] of 0.419 ± 0.0096. It also gave a protein stability index [2, 5] of 0.427 ± 0.028, a protein stability index [2, 6] of 0.468 ± 0.0082 and a protein stability index [2, 7] of 0.091 ± 0.019. The protein stability index [2, 8] was 0.0905 ± 0.025 and the protein stability index [2, 9] was 0.117 ± 0.011.

LFSTRRWISVCA showed a protein stability index [1] of 0.0789 ± 0.016, a protein stability index [2, 3] of 0.0208 ± 0.0016 and a protein stability index [2, 4] of 0.0362 ± 0.013. It also gave a protein stability index [2, 5] of 0.134 ± 0.035, a protein stability index [2, 6] of 0.127 ± 0.011 and a protein stability index [2, 7] of 0.0486 ± 0.012. For the same sequence, the protein stability index [2, 8] was 0.054 ± 0.0027 and the protein stability index [2, 9] was 0.0577 ± 0.015.

In the case of FFLKPVPSLFLC, the protein stability index [1] is reported as 0.14 ± 0.014, the protein stability index [2, 3] is reported as 0.388 ± 0.015 and the protein stability index [2, 4] is reported as 0.5971 ± 0.005. The protein stability index [2, 5] was 0.519 ± 0.021, the protein stability index [2, 6] was 0.6657 ± 0.0034 and the protein stability index [2, 7] was 0.0796 ± 0.014. The protein stability index [2, 8] was 0.0677 ± 0.0064 and the protein stability index [2, 9] was 0.0767 ± 0.016.

Sequence LPPSPPAPLSRL has a protein stability index [1] of 0.804 ± 0.066, a protein stability index [2, 3] of 0.906 ± 0.024 and a protein stability index [2, 4] of 0.8918 ± 0.0015. The protein stability index [2, 5] was 0.81 ± 0.012, the protein stability index [2, 6] was 0.8616 ± 0.0061 and the protein stability index [2, 7] was 0.804 ± 0.022. It also gave a protein stability index [2, 8] of 0.801 ± 0.019 and a protein stability index [2, 9] of 0.8571 ± 0.005.

Work on LVVIYPLLSSPV yielded a protein stability index [1] of 0.4643 ± 0.00088, a protein stability index [2, 3] of 0.564 ± 0.0066 and a protein stability index [2, 4] of 0.567 ± 0.019. It also gave a protein stability index [2, 5] of 0.43 ± 0.027, a protein stability index [2, 6] of 0.578 ± 0.0074 and a protein stability index [2, 7] of 0.402 ± 0.014. For the same sequence, the protein stability index [2, 8] was 0.43 ± 0.022 and the protein stability index [2, 9] was 0.562 ± 0.0072.

For FGVSLFLPLSVV, the protein stability index [1] was 0.407 ± 0.017, the protein stability index [2, 3] was 0.4023 ± 0.0021 and the protein stability index [2, 4] was 0.415 ± 0.006. It also gave a protein stability index [2, 5] of 0.32 ± 0.026, a protein stability index [2, 6] of 0.46 ± 0.011 and a protein stability index [2, 7] of 0.281 ± 0.0048. The protein stability index [2, 8] was 0.308 ± 0.023 and the protein stability index [2, 9] was 0.4184 ± 0.0035.

Sequence LLMFWLSIWFWG has a protein stability index [1] of 0.32 ± 0.035, a protein stability index [2, 3] of 0.22 ± 0.0092 and a protein stability index [2, 4] of 0.292 ± 0.0066. It also gave a protein stability index [2, 5] of 0.245 ± 0.047, a protein stability index [2, 6] of 0.374 ± 0.008 and a protein stability index [2, 7] of 0.268 ± 0.023. For the same sequence, the protein stability index [2, 8] was 0.233 ± 0.037 and the protein stability index [2, 9] was 0.3551 ± 0.0028.

With GVMSICRWMISV the protein stability index [1] was 0.374 ± 0.014, the protein stability index [2, 3] was 0.415 ± 0.0094 and the protein stability index [2, 4] was 0.427 ± 0.012. It also gave a protein stability index [2, 5] of 0.325 ± 0.042, a protein stability index [2, 6] of 0.4914 ± 0.0034 and a protein stability index [2, 7] of 0.263 ± 0.013. For the same sequence, the protein stability index [2, 8] was 0.275 ± 0.035 and the protein stability index [2, 9] was 0.439 ± 0.017.

For FFVISVVLCLLV, the protein stability index [1] was 0.43 ± 0.0088, the protein stability index [2, 3] was 0.377 ± 0.015 and the protein stability index [2, 4] was 0.48 ± 0.016. It also gave a protein stability index [2, 5] of 0.341 ± 0.022, a protein stability index [2, 6] of 0.447 ± 0.022 and a protein stability index [2, 7] of 0.325 ± 0.0033. For the same sequence, the protein stability index [2, 8] was 0.344 ± 0.019 and the protein stability index [2, 9] was 0.434 ± 0.015.

VPTRRRGNRRPA was tested, and the protein stability index [1] was 0.788 ± 0.03, the protein stability index [2, 3] was 0.673 ± 0.022 and the protein stability index [2, 4] was 0.7259 ± 0.0048. For the same sequence, the protein stability index [2, 5] was 0.639 ± 0.021, the protein stability index [2, 6] was 0.725 ± 0.018 and the protein stability index [2, 7] was 0.641 ± 0.011. The protein stability index [2, 8] was 0.653 ± 0.015 and the protein stability index [2, 9] was 0.706 ± 0.02.

RFVLVFLVSLII showed a protein stability index [1] of 0.435 ± 0.035, a protein stability index [2, 3] of 0.376 ± 0.039 and a protein stability index [2, 4] of 0.501 ± 0.0079. For the same sequence, the protein stability index [2, 5] was 0.399 ± 0.029, the protein stability index [2, 6] was 0.541 ± 0.042 and the protein stability index [2, 7] was 0.364 ± 0.016. It also gave a protein stability index [2, 8] of 0.397 ± 0.016 and a protein stability index [2, 9] of 0.48 ± 0.019.

LSLVYFAALFSF gave a protein stability index [1] of 0.4709 ± 0.0037, a protein stability index [2, 3] of 0.484 ± 0.042 and a protein stability index [2, 4] of 0.529 ± 0.033. It also gave a protein stability index [2, 5] of 0.409 ± 0.019, a protein stability index [2, 6] of 0.53775 ± 0.00036 and a protein stability index [2, 7] of 0.356 ± 0.025. The protein stability index [2, 8] was 0.377 ± 0.043 and the protein stability index [2, 9] was 0.4858 ± 0.003.

For VSLSWFSCCFVG, the protein stability index [1] was 0.386 ± 0.0073, the protein stability index [2, 3] was 0.497 ± 0.066 and the protein stability index [2, 4] was 0.556 ± 0.03. The protein stability index [2, 5] was 0.439 ± 0.026, the protein stability index [2, 6] was 0.489 ± 0.023 and the protein stability index [2, 7] was 0.376 ± 0.026. For the same sequence, the protein stability index [2, 8] was 0.377 ± 0.019 and the protein stability index [2, 9] was 0.458 ± 0.01.

Sequence FRVSAFFLPFLS has a protein stability index [1] of 0.4 ± 0.013, a protein stability index [2, 3] of 0.652 ± 0.031 and a protein stability index [2, 4] of 0.715 ± 0.008. The protein stability index [2, 5] was 0.655 ± 0.022, the protein stability index [2, 6] was 0.735 ± 0.015 and the protein stability index [2, 7] was 0.226 ± 0.011. For the same sequence, the protein stability index [2, 8] was 0.246 ± 0.022 and the protein stability index [2, 9] was 0.486 ± 0.048.

GIFVWWFWGCCG was tested, and the protein stability index [1] was 0.399 ± 0.01, the protein stability index [2, 3] was 0.503 ± 0.016 and the protein stability index [2, 4] was 0.585 ± 0.051. For the same sequence, the protein stability index [2, 5] was 0.38 ± 0.023, the protein stability index [2, 6] was 0.567 ± 0.03 and the protein stability index [2, 7] was 0.293 ± 0.02. It also gave a protein stability index [2, 8] of 0.321 ± 0.017 and a protein stability index [2, 9] of 0.5283 ± 0.0019.

Source: the supplement of paper PMC10724198
